Read-outs that look alike come from different tables or passages of the source. No end group written: not given here.
How the values were obtained:
[1] = target: HLA-A*3101 (human); experiment: competition with 125I-labelled probe peptide for purified HLA, gel filtration; settings: for IC50: remark: other sources report otherwise
[2] = target: HLA-A*3301 (human); experiment: as above
[3] = target: HLA-A*0301 (human)
[4] = target: HLA-A*0301 (human); remark: listed apart in the source
[5] = target: HLA-A*0201 (human); experiment: competition with 125I-labelled standard peptide for purified HLA, gel filtration
[6] = target: HLA-A*0201 (human)
[7] = remark: other sources report otherwise

## GIHLNPNKTK (modifications not checked) [HBV POL 567 peptide …]
[1]
  binding affinity ratio (IC50 of standard peptide / IC50 of test peptide): 0.0009
[2]
  binding affinity ratio (IC50 of standard peptide / IC50 of test peptide): 0.0009

## CLIFLLVLLDY (modifications not checked) [HBV ENV 253 …]
[3]
  binding affinity ratio (IC50 of standard peptide / IC50 of test peptide): 0.0083

## RTPSPRRR (modifications not checked) [HBV NUC 188 RTPSPRRR]
[4]
  binding affinity ratio (IC50 of standard peptide / IC50 of test peptide): -0.0002

## SALNPADDPSR (modifications not checked) [HBV POL 771 …]
[4]
  binding affinity ratio (IC50 of standard peptide / IC50 of test peptide): -0.0004

## KVFVLGGCR (modifications not checked) [peptide 1.0993 (HBV X 130, …)]
[1]
  IC50: 30 nM

## SSAGPCALRF (modifications not checked) [HBV X 64 …]
[4]
  binding affinity ratio (IC50 of standard peptide / IC50 of test peptide): -0.0003

## CLIFLLVL (modifications not checked) [HBV ENV 253 peptide CLIFLLVL]
[5]
  binding affinity ratio (IC50 of standard peptide / IC50 of test peptide): 0.0002

## CLGWLWGMDI (modifications not checked) [HBV NUC 23 peptide …]
[5]
  binding affinity ratio (IC50 of standard peptide / IC50 of test peptide): 0.0093

## NSVVLSRK (modifications not checked) [HBV POL 738 NSVVLSRK]
[4]
  binding affinity ratio (IC50 of standard peptide / IC50 of test peptide): 0.0006

## ILLLCLIFLLV (modifications not checked) [HBV ENV 249 peptide …]
[5]
  binding affinity ratio (IC50 of standard peptide / IC50 of test peptide): 0.0056

## NLGNLNVSI (modifications not checked) [HBV POL 42 peptide …]
[6]
  binding affinity ratio (IC50 of standard peptide / IC50 of test peptide): 0.0047

## GLLGFAAPF (modifications not checked) [HBV POL 627 peptide …]
[3]
  binding affinity ratio (IC50 of standard peptide / IC50 of test peptide): 0.0006

## LSWLSLDVSA (modifications not checked) [HBV POL 412 …]
[3]
  binding affinity ratio (IC50 of standard peptide / IC50 of test peptide): 0.0048

## WLSLDVSAAFY (not fully specified) [[…] (HBV POL 414)]
[3]
  binding affinity ratio (IC50 of standard peptide / IC50 of test peptide): 0.0034

## SVVLSRKY (modifications not checked) [HBV POL 739 SVVLSRKY]
[3]
  binding affinity ratio (IC50 of standard peptide / IC50 of test peptide): -0.0002

## FIIFLFIL (modifications not checked) [HBV ENV 243 8-mer FIIFLFIL]
[6]
  binding affinity ratio (IC50 of standard peptide / IC50 of test peptide): 0.0006

## CIPIPSSWA (modifications not checked) [HBV ENV 312 peptide …]
[5]
  binding affinity ratio (IC50 of standard peptide / IC50 of test peptide): 0.001

## AICSVVRRA (modifications not checked) [HBV POL 521 peptide …]
[5]
  binding affinity ratio (IC50 of standard peptide / IC50 of test peptide): 0.0001

## TSAICSVVRR (modifications not checked) [HBV POL 519 …]
[3]
  binding affinity ratio (IC50 of standard peptide / IC50 of test peptide): 0.0018

## LVPFVQWF (modifications not checked) [HBV ENV 339 LVPFVQWF]
[4]
  binding affinity ratio (IC50 of standard peptide / IC50 of test peptide): 0.0028

## YLPLDKGIKPY (modifications not checked) [… (HBV POL 122)]
[3]
  binding affinity ratio (IC50 of standard peptide / IC50 of test peptide): -0.0004

## VVRRRGRSPR (modifications not checked) [HBV NUC 177 peptide […] (as printed)]
[3]
  binding affinity ratio (IC50 of standard peptide / IC50 of test peptide): 0.0027

## LIFLLVLL (modifications not checked) [HBV ENV 254 LIFLLVLL]
[6]
  binding affinity ratio (IC50 of standard peptide / IC50 of test peptide): 0.0025

## NLEDPASR (modifications not checked) [HBV NUC 75 NLEDPASR]
[4]
  binding affinity ratio (IC50 of standard peptide / IC50 of test peptide): -0.0002

## SAGPCALRF (modifications not checked) [HBV X 65 …]
[4]
  binding affinity ratio (IC50 of standard peptide / IC50 of test peptide): -0.0003

## CLAFSYMDDV (modifications not checked) [HBV POL 533 peptide …]
[5]
  binding affinity ratio (IC50 of standard peptide / IC50 of test peptide): 0.0008

## LVVDFSQF (modifications not checked) [HBV POL 377 LWDFSQF]
[4]
  binding affinity ratio (IC50 of standard peptide / IC50 of test peptide): 0.0016

## SAICSVVR (modifications not checked) [HBV POL 520 SAICSVVR]
[4]; [7]
  binding affinity ratio (IC50 of standard peptide / IC50 of test peptide): -0.0002

## LTVNEKRR (modifications not checked) [HBV POL 99 LTVNEKRR]
[4]
  binding affinity ratio (IC50 of standard peptide / IC50 of test peptide): -0.0002

## RSPRRRTPSPR (modifications not checked) [HBV NUC 163 peptide …]
[3]
  binding affinity ratio (IC50 of standard peptide / IC50 of test peptide): -0.0007

## LLGCAANWI (modifications not checked) [HBV POL 752 …]
[6]
  binding affinity ratio (IC50 of standard peptide / IC50 of test peptide): 0.0011

## SSAGPCALR (modifications not checked) [peptide 26.0153 (HBV X 64, …)]
[1]
  IC50: 55 nM

## IVGLLGFAA (modifications not checked) [HBV POL 625 peptide …]
[5]
  binding affinity ratio (IC50 of standard peptide / IC50 of test peptide): 0.0009

## LLTRILTI (modifications not checked) [HBV ENV 184 LLTRILTI]
[6]
  binding affinity ratio (IC50 of standard peptide / IC50 of test peptide): 0.0026

## LSTLPETTVVR (modifications not checked) [HBV NUC 169 …]
[3]
  binding affinity ratio (IC50 of standard peptide / IC50 of test peptide): -0.0009

## FVLGGCRHK (modifications not checked) [peptide 1.0219 (HBV X 1550, …)]
[1]
  IC50: 1500 nM

## DLNLGNLNV (modifications not checked) [HBV POL 40 9-mer …]
[6]
  binding affinity ratio (IC50 of standard peptide / IC50 of test peptide): 0.0004

## RAFPHCLAF (modifications not checked) [HBV POL 528 peptide …]
[3]
  binding affinity ratio (IC50 of standard peptide / IC50 of test peptide): 0.0015

## NLLSSNLSWL (modifications not checked) [HBV POL 406 peptide …]
[6]
  binding affinity ratio (IC50 of standard peptide / IC50 of test peptide): 0.0016

## LLDYQGML (modifications not checked) [HBV ENV 260 LLDYQGML]
[6]
  binding affinity ratio (IC50 of standard peptide / IC50 of test peptide): 0.0004

## AMSTTDLEA (modifications not checked) [HBV X 102 peptide …]
[5]; [7]
  binding affinity ratio (IC50 of standard peptide / IC50 of test peptide): 0.0013

## SAGPCALR (modifications not checked) [HBV X 65 SAGPCALR]
[4]; [7]
  binding affinity ratio (IC50 of standard peptide / IC50 of test peptide): -0.0002

## LVSFGVWI (modifications not checked) [HBV NUC 119 peptide LVSFGVWI]
[6]
  binding affinity ratio (IC50 of standard peptide / IC50 of test peptide): 0.0004

## NLNVSIPWTHK (modifications not checked) [HBV POL 45 …]
[4]
  binding affinity ratio (IC50 of standard peptide / IC50 of test peptide): -0.0009

## ILLLCLIFL (modifications not checked) [HBV ENV 249 peptide … (9-mer, as printed)]
[5]
  binding affinity ratio (IC50 of standard peptide / IC50 of test peptide): 0.0015

## FLFILLLCL (modifications not checked) [HBV ENV 246 9-mer …]
[6]
  binding affinity ratio (IC50 of standard peptide / IC50 of test peptide): 0.0002

From patent US20070059799A1
